Our source for the stoichiometry N (HROB per MCM8-9 heterodimer) values is PMC11055865.

The experiment deals with MCM8-9 complex (FLAG-tagged MCM8 and MBP-tagged MCM9), wild type (human) (UniProt Q9UJA3). In words: mass photometry; MCM8-9 preincubated with HROB (both 1 μM) 10 min at room temperature in 25 mM Tris-HCl pH 7.5, 3 mM EDTA, 50 mM NaCl, then rapidly diluted to 200 nM; complex largely fell apart upon dilution.
Chain of MCM8-9 complex (FLAG-tagged MCM8 and MBP-tagged MCM9), wild type (human) (Q9UJA3 whole entry, chain 1 of 2): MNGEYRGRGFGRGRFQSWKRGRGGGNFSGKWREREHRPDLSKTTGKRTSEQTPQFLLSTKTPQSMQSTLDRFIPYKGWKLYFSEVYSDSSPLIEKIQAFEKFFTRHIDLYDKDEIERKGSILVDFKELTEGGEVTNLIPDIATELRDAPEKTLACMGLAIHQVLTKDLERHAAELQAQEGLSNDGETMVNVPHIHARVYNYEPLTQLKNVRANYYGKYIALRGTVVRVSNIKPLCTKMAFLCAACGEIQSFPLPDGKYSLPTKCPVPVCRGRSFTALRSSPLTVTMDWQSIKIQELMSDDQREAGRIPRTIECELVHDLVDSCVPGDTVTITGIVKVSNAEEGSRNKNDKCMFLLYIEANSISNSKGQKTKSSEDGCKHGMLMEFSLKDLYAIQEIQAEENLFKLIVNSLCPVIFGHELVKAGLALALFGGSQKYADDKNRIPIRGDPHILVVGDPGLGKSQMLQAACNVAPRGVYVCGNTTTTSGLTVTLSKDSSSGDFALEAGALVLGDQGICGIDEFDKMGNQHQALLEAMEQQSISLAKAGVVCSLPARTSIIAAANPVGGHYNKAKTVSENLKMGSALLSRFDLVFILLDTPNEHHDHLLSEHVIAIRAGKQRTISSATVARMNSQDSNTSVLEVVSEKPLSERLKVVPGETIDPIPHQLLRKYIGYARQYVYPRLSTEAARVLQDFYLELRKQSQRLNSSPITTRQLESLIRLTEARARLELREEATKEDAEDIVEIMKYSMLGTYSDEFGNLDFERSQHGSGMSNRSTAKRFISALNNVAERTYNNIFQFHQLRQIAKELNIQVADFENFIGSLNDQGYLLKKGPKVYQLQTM
Chain of MCM8-9 complex (FLAG-tagged MCM8 and MBP-tagged MCM9), wild type (human) (Q9NXL9 whole entry, chain 2 of 2, further chain): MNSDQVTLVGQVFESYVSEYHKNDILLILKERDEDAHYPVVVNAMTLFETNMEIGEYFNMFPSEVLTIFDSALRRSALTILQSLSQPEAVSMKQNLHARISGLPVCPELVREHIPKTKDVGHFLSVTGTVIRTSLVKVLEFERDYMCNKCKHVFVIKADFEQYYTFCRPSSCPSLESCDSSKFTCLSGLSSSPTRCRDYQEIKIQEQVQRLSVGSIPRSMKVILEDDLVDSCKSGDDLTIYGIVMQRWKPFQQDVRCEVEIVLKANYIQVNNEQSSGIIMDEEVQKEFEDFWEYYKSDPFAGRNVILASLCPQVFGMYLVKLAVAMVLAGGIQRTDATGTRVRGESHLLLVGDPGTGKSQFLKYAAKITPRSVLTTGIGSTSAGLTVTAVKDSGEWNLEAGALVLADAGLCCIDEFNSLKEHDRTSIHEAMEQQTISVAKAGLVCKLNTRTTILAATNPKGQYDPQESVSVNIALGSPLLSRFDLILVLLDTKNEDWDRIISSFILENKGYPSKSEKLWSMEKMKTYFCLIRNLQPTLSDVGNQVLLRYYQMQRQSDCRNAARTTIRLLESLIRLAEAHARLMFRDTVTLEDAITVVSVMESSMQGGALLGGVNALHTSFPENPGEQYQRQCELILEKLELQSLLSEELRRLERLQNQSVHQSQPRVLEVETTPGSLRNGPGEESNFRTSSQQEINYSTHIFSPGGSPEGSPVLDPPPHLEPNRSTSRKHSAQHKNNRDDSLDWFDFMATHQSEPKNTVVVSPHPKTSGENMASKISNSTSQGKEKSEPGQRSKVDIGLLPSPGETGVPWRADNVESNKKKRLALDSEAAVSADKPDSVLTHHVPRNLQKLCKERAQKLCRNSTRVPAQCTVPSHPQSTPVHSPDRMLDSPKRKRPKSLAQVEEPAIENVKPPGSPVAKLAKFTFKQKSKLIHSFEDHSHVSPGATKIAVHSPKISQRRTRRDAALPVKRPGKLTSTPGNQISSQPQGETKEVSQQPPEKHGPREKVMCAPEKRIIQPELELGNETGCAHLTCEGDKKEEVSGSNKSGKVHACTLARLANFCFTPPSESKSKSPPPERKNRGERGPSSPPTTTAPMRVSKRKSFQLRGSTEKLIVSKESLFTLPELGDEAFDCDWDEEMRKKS

As to “HROB-FLAG (wild type HROB, homologous recombination factor with OB-fold) (from UniProt Q8N3J3-4 1-646) (natural protein)”, the stoichiometry N (HROB per MCM8-9 heterodimer) was determined as 1.
